Laboratory results: the DeepSol protein solubility set

Assay: soluble on expression in E. coli; label from the status in PepcDB or PDB records

Row | Sequence | soluble on expression in E. coli
1 | MAHHHHHHMGKVKKQANHAIKKILMKEKSLAMKKKREAESYHETPESNTTTQATKDYAAVLFRKALVTQAAPTRTAHFLSYNTALGPPYRIWLDTNFINFSMQNKIDIVQGLMDCLLAKVIPCICDCVFAELEKLGKKFRIALKLARDKRFERLTCDSKYADDCVVRTVTQHPIYIVATCDQELKRRLRKVPGVPIMYIAKHRYTIERLPEAYGAPE | not soluble
2 | MSISGLFILDLKGNVVISRNYRGDVDMSCIEKFMPLLVEKEDEGSASPVLVHQGISYTYIKYMNVYLVTISKKNTNVILVLSALYKIVEVFCEYFKTLEEEAVRDNFVIIYELFDEMLDFGYPQTTESKILQEFITQQGNRLETVRPPMAVTNAVSWRSEGIKYRKNEVFLDVIESVNMLANAQGTVLRSEIVGSIRFRVVLSGMPELRLGLNDKVFFQQSGASSRRGNSGKGVELEDIKFHQCVRLSRFDSERTISFIPPDGEFELMSYRLTTQVKPLIWVEAAVERHAHSRVEYMVKAKSQFKRQSVANHVEVIIPVPSDVSAPKFKTGAGTAKYVPELNAIVWSIRSFPGGREYIMRSSFMLPSIGSEELEGRPPINVKFEIPYYTTSGLQVRYLKIIEKSGYQALPWVRYVTQNGDYQMRMT | not soluble
3 | MGSDKIHHHHHHMLIEKELSELTVGHYVVKIIQQEGCFSLTAAGHIKSKAVINHLKSKNVHRVLIDDSKTLLSSSHEKSATVDAPSIVKNKELKHAKAIFDQSKSIQKKLFHDALSGSCLDLSPVVEVTNKSIDAIFNSPDSLACMLNIREKDEYLLEHSVAVSVYITIFSRYLDLERHIIEQLSIGAFLHDIGKIKIPDKILNKPGKLTVDEFTIMKTHANHSIAIIKETPGISALSLEVAALHHEKLDGSGYPFQVDGEDISQYGRMIAICDIFDALTATRVYKEGFTHGKAFSILRELAKQGQLDASLVDHFIKCVGVFPVGSLVQLKSNKLALVQERNDKDPINPQVHSFYSVKLNQFLNKQEIDLSGSEDSIVKSVRAEEFDLDMKQIVDMLLMEG | not soluble
4 | MGSSHHHHHHSSGLVPRGSHMTDKLTSLRQYTTVVADTGDIAAMKLYQPQDATTNPSLILNAAQIPEYRKLIDDAVAWAKQQSNDRAQQIVDATDKLAVNIGLEILKLVPGRISTEVDARLSYDTEASIAKAKRLIKLYNDAGISNDRILIKLASTWQGIRAAEQLEKEGINCNLTLLFSFAQARACAEAGVFLISPYVGEILDWYKANTDKKEYAPAEDPGVVSVSEIYQYYKEHGYETVVMGASFRNIGEILELAGCDRLTIAPTLLKELAESEGAIERKLSYTGEVKARPARITESEFLWQHNQDPMAVDKLAEGIRKFAIDQEKLEKMIGDLL | soluble
5 | STGPVAPLPTPPNFPNDIALFQQAYQNWSKEIMLDATWVCSPKTPQDVVRLANWAHEHDYKIRPRGAMHGWTPLTVEKGANVEKVILADTMTHLNGITVNTGGPVATVTAGAGASIEAIVTELQKHDLGWANLPAPGVLSIGGALAVNAHGAALPAVGQTTLPGHTYGSLSNLVTELTAVVWNGTTYALETYQRNDPRITPLLTNLGRCFLTSVTMQAGPNFRQRCQSYTDIPWRELFAPKGADGRTFEKFVAESGGAEAIWYPFTEKPWMKVWTVSPTKPDSSNEVGSLGSAGSLVGKPPQAREVSGPYNYIFSDNLPEPITDMIGAINAGNPGIAPLFGPAMYEITKLGLAATNANDIWGWSKDVQFYIKATTLRLTEGGGAVVTSRANIATVINDFTEWFHERIEFYRAKGEFPLNGPVEIRCCGLDQAADVKVPSVGPPTISATRPRPDHPDWDVAIWLNVLGVPGTPGMFEFYREMEQWMRSHYNNDDATFRPEWSKGWAFGPDPYTDNDIVTNKMRATYIEGVPTTENWDTARARYNQIDPHRVFTNGFMDKLLP | soluble
6 | MCLDQVMEGSATVHMAAPPDKIWTLIADVRNTGRFSPETFEAEWLDGATGPALGARFRGHVRRNGIGPVYWTVCEPGREFGFAVLLGDRPVNNWHYRLTPTADGTEVTESFRLPPSVLTTVYYRVFGGWLRQRRNIRDMTKTLQRIKDLVEAG | soluble
7 | MDIISVALKRHSTKAFDASKKLTPEQAEQIKTLLQYSPSSTNSQPWHFIVASTEEGKARVAKSAAGNYVFNERKMLDASHVVVFCAKTAMDDVWLKLVVDQEDADGRFATPEAKAANDKGRKFFADMHRKDLHDDAEWMAKQVYLNVGNFLLGVAALGLDAVPIEGFDAAILDAEFGLKEKGYTSLVVVPVGHHSVEDFNATLPKSRLPQNITLTEV | soluble
